We go through five molecules from US11938195B2, “Upconversion nanoparticle peptide conjugates” (BP InnoMed Limited, priority 2021, dated 2024).

Series [1] can be described thus: Peptide release from nanoprobes under various time intervals (UV-vis absorbance). The conditions noted are these: 0.5 mg/mL. Format: physicochemical. The text has this:
The stability and capability of cleavage of the pH linker were also studied. […] More importantly, TEM images of UCNP-P5 at different pH buffers were observed and investigated in FIG. 1, providing direct evidence on pH-responsive peptide release from UCNP.

Series [2] in a line: Peptide release from nanoprobes under various pH buffers (UV-vis absorbance). The series is classed as physicochemical. As to conditions: 24 h in buffer, 0.5 mg/mL. From the text:
The stability and capability of cleavage of the pH linker were also studied. […] More importantly, TEM images of UCNP-P5 at different pH buffers were observed and investigated in FIG. 1, providing direct evidence on pH-responsive peptide release from UCNP. […]

Series [3] deals with EBV-positive C666 cells. The series can be described thus: Two-photon confocal imaging, C666. The series is classed as cell-based. As to conditions: mainly from the nuclei, 24 h incubation. The procedure:
After the study of cellular uptake, fluorescent confocal microscopy was used to study the sub-cellular localization with the same set of EBV-/LMP1-positive and -negative cell lines. All these cell lines were treated with as-prepared samples for different time intervals of 1 h, 3 h, 6 h, 12 h and 24 h. Fluorescence signals in the cells were imaged under 980 nm excitation.
The cells were then co-stained with 0.05 mM nuclear dye DRAQ5 for 0.5 h for confocal imaging with a Leica SP8 confocal microscope equipped with a coherent femtosecond laser (690-1050 nm), argon laser (432 nm, 457 nm and 488 nm), He—Ne laser (632 nm), UV lamp. A stage-top cell culture chamber was also used to maintain the atmospheric conditions of 2-7% CO2 and a temperature of 37° C.

In series [4] the test system is C666 derived xenografts. The series can be described thus: In vivo suppression assay, C666 xenograft. From the text: To determine the antitumor efficacy of the new nanoprobes in vivo, their therapeutic effects were investigated in C666 and HeLa derived xenografts in BALB/c nude mice. The mice were randomly divided into five groups: (1) control (PBS), (2) UCNP, (3) UCNP-P5, (4) UCNP-P6, (5) UCNP-P7. In order to recapitulate the clinical setting of drug delivery, intravenous injection (via a tail vein) was used to deliver these agents to the immunocompromised animal.
In vivo suppression assays: EBV-positive C666 and EBV-negative HeLa cells were suspended in 200 μL of serum-free RMPI 1640 and DMEM respectively. Female BALB/c nude mice (6-8 weeks) which obtained from HKU were then injected with the cells in the right flank. Intravenous injections were performed when the average tumor volumes reached ˜200 mm^3. 0.25 mg/tumor dose of UCNP and UCNP-Pn [n=5, 6 and 7 (SEQ ID NO: 5, 6, 7)] in […] PBS buffer were injected through tail vein of mice using a 24-gauge syringe. Mice injected with the same volume of PBS buffer served as control. The body weight and tumor volumes of the mice were measured three times per week; in which the latter is calculated by (L×W^2)/2, where L and W are the longer and shorter tumor dimensions respectively. Intravenous injection at the tail vein were performed twice a week and the mice were sacrificed after 33-day experimental period; the tumors were extracted and weighed. The treatment groups are unknown to the investigators for the experimental and data analysis processes. The animal experiments conducted were approved by the Department of Health of the HKSAR Government. All animal procedures are within the Guidelines for Care and Use of Laboratory Animals of HKBU and approved by the Animal Ethics Committee of HKBU.
Hematoxylin and eosin (H&E) staining: In general, the transplanted C666 and HeLa derived tumor tissues were collected and fixed with formalin, followed by embedding in paraffin. The histologic sections were then stained with hematoxylin and eosin. Other major organ tissues (heart, liver, spleen, lung, kidney, brain) were conducted in the same procedures.

Series [5] has as its system EBV-positive C666 cells. The series can be described thus: MTT cytotoxicity assay, C666 cells. The conditions noted are these: 24 h. The procedure:
The inhibitory effects of the novel nanoprobes on both EBV-infected cancer cells and non-EBV-infected cancer cells were investigated by MTT assays to test the cell viability. The cytotoxic assays were performed in EBV-positive C666 and NPC43 cells, LMP1-positive LCL3 and Raji cells, and the LMP1-positive and -negative HK1 cell pair. HK1, MRC-5 and HeLa cell lines are EBV-negative and they serve as negative controls. […] In addition, UCNP-P4, EBNA1-specific peptide coated UCNPs was included as control group, so the ability of inhibiting EBV-related cancer cells can be directly compared with UCNP-Pn [n=5, 6 and 7 (SEQ ID NO: 5, 6, 7)].
In vitro cytotoxic assays: The cytotoxicity of our nanoprobes was determined by MTT reduction assay. The cells (3×10^3 per well) were seeded onto 96-well plates and incubated overnight, followed by treatment with Pn [n=5, 6 and 7 (SEQ ID NO: 5, 6, 7)], UCNP, UCNP-Pn [n=5, 6 and 7 (SEQ ID NO: 5, 6, 7)] and UCNP-P4 individually at 37° C., 5% CO2 for 24 h in dark. The cell monolayers were rinsed with PBS and 50 μL of MTT, 3-(4,5-dimethylthiazol-2-yl)-2,5-diphenyltetrazolium bromide solution (0.5 mg mL^−1) was added per well and the cells were further incubated for 3 h at 37° C. The solution was subsequently discarded, and the formazan crystals were dissolved in 100 μL of DMSO per well under shaking. The absorptions of the formazan crystal solutions at 540 nm and 690 nm were measured using a dual-wavelength Labsystem Multiskan microplate reader (Merck Eurolab).
Background: Tetrazolium assays rely on reduction of a dye to a coloured formazan, in cell work by metabolically active cells.

Series [6] deals with p65. The series can be described thus: Western blot of p65 (NF-κB) in LCL3 cells. Format: cell-based. The text has this: (§1) NF-κB signaling pathway is critical for the survival of EBV-infected tumor cells. Here we investigated if our nanoprobes could affect this oncogenic pathway. EBV-positive LCL3 and C666 cells were used as models, EBV-negative HK1 cells were used as control and Western blot was used to analyze the protein expression of p65, a major transcription factor in the NF-κB family. […] GAPDH and Histone are regarded as internal standards in cytosolic and nuclear fractions, respectively. […] This is consistent with the cellular uptake results.
(§2) Western blotting: EBV-positive C666, LCL3 and EBV-negative HK1 cell pellets were treated with phosphatase and protease inhibitors at 0-4° C. for 30 min. The total protein concentrations were calculated by protein absorbance. The protein was resolved by sodium dodecyl sulfate-polyacrylamide gel electrophoresis (SDS-PAGE) and transferred to cellulose filter membranes. The membranes were blocked with 3% BSA in Tris-buffered saline in 0.1% Tween 20 (TBST) for 1 h with gentle shaking and subsequently incubated with primary antibodies (1:1000) in 3% BSA in TBST at 4° C. for overnight. After rinsing with TBST buffer three times, the blots were then incubated with corresponding secondary anti-rabbit antibody (1:6000) for 1 h. After that, the blots were rinsed again with 3% BSA in TBST for 1 h shaking at room temperature. Lastly, the density of bands was determined by image analysis system after washing with TBST buffer three times.
A general note: Immunoblotting shows a protein as a band on a membrane.

The test system of series [7] is p65. The series can be described thus: Western blot of p65 (NF-κB) in C666 cells. The series is classed as cell-based.
Text: as §1, §2

Where a SMILES comes first, the peptide text is derived from it. Where no end group is shown, it is not given here. [ ]: non-standard residue; d: D form. Ahx = NCCCCCC(=O)O

As for “UCNP-P7: UCNP is NaGdF4:Yb^3+, Er^3+@NaGdF4 and the plurality of polypeptides is Ahx-FWLYGGRrRKGGYFMVF (SEQ ID NO: 7) ([Ahx]FWLYGGR[dR]RKGGYFMVF; also: UCNP conjugate)”, the Peptide release rate in series [1] (1 h) is given as 0%; in series [1] (3 h) it was 0%; in series [1] (6 h), 0.2%; in series [1] (12 h), 0.7%; in series [1] (24 h) it was 1.0%; in series [1] (3 day), 1.6%. The Peptide release rate is listed as 2.6% in series [1] (7 day); 81.2% in series [2] (pH 5.0); 58.5% in series [2] (pH 5.5); 48.2% in series [2] (pH 6.0); 36.1% in series [2] (pH 6.5); 7.4% in series [2] (pH 7.0). Also, the Peptide release rate in series [2] (pH 7.4) was determined as 0%. In addition, the “Responsive emission enhancement (lambda scan)” value in series [3] is on record as “two-fold”. For the same molecule, in series [4] (12.5 mg/kg, intravenous (tail vein), twice a week, 33 days), the “Effect on average tumor size” value was “no obvious effect on the tumor size”. For the same molecule, the Body weight entry in series [4] (C666 tumor-bearing mice, 33-day experimental period) is given as “slight reduction of body weight”.
As to `CSCC[C@H](NC(=O)[C@H](Cc1ccccc1)NC(=O)[C@H](Cc1ccc(O)cc1)NC(=O)CNC(=O)CNC(=O)[C@H](CCCCN)NC(=O)[C@H](CCCNC(=N)N)NC(=O)[C@@H](CCCNC(=N)N)NC(=O)[C@H](CCCNC(=N)N)NC(=O)CCCCCN)C(=O)N[C@H](C(=O)N[C@@H](Cc1ccccc1)C(=O)NCC(=O)NCC(=O)N[C@@H](Cc1ccccc1)C(=O)N[C@@H](Cc1c[nH]c2ccccc12)C(=O)N[C@@H](CC(C)C)C(=O)N[C@@H](Cc1ccc(O)cc1)C(=O)O)C(C)C` [P6, -Ahx-RrRKGGYFMVFGGFWLY (SEQ ID NO:6)] (H-[Ahx]R[dR]RKGGYFMVFGGFWLY-OH; C-terminus assumed), the “Cytotoxicity of free peptides (MTT cell viability)” value (“Cytotoxicity of free peptides” below) in series [5] is “capable of selectively targeting and killing EBV-infected cells”.
Regarding “NaGdF4:Yb^3+, Er^3+@NaGdF4 [UCNP, reference compound]”, in series [4] (mouse, in vivo), the “Tumor uptake (ICP-MS biodistribution)” value was “nearly undetectable in the tumor”.
As to `CSCC[C@H](NC(=O)[C@H](Cc1ccccc1)NC(=O)[C@H](Cc1ccc(O)cc1)NC(=O)CNC(=O)CNC(=O)[C@H](CCCCN)NC(=O)[C@H](CCCNC(=N)N)NC(=O)[C@@H](CCCNC(=N)N)NC(=O)[C@H](CCCNC(=N)N)NC(=O)CNC(=O)CNC(=O)[C@H](Cc1ccc(O)cc1)NC(=O)[C@H](CC(C)C)NC(=O)[C@H](Cc1c[nH]c2ccccc12)NC(=O)[C@H](Cc1ccccc1)NC(=O)CCCCCN)C(=O)N[C@H](C(=O)N[C@@H](Cc1ccccc1)C(=O)O)C(C)C` [P7, -Ahx-FWLYGGRrRKGGYFMVF (SEQ ID NO:7)] (H-[Ahx]FWLYGGR[dR]RKGGYFMVF-OH), in series [5], the “Cytotoxicity of free peptides” value is “capable of selectively targeting and killing EBV-infected cells”.
For `CSCC[C@H](NC(=O)[C@H](Cc1ccccc1)NC(=O)[C@H](Cc1ccc(O)cc1)NC(=O)CCCCCN)C(=O)N[C@H](C(=O)N[C@@H](Cc1ccccc1)C(=O)NCC(=O)NCC(=O)N[C@@H](CCCNC(=N)N)C(=O)N[C@H](CCCNC(=N)N)C(=O)N[C@@H](CCCNC(=N)N)C(=O)N[C@@H](CCCCN)C(=O)NCC(=O)NCC(=O)N[C@@H](Cc1ccccc1)C(=O)N[C@@H](Cc1c[nH]c2ccccc12)C(=O)N[C@@H](CC(C)C)C(=O)N[C@@H](Cc1ccc(O)cc1)C(=O)O)C(C)C` [P5, -Ahx-YFMVFGGRrRKGGFWLY (SEQ ID NO:5)] (H-[Ahx]YFMVFGGR[dR]RKGGFWLY-OH; C-terminus assumed), in series [5], the “Cytotoxicity of free peptides” value was “capable of selectively targeting and killing EBV-infected cells”. In addition, the “Decreased p65 expression, nuclear fraction” value in series [6] is 86%; in series [7], 89%.
